Assay results taken from patent publication US20180017572A1 (Hoffmann-La Roche, published 2018).

B1: bispecific anti-HER2 antibody, common light chain (bispecific antibody, human IgG1, kappa)
light: DIQMTQSPSSLSASVGDRVTITCKASQDVSTAVAWYQQKPGKAPKLLIYSASFRYTGVPSRFSGSRSGTDFTLTISSLQPEDFATYYCQQHYTTPPTFGQGTKVEIKRTVAAPSVFIFPPSDEQLKSGTASVVCLLNNFYPREAKVQWKVDNALQSGNSQESVTEQDSKDSTYSLSSTLTLSKADYEKHKVYACEVTHQGLSSPVTKSFNRGEC
heavy 1: not shown
heavy 2: not shown
notes: Knob-into-hole bispecific antibody with a common light chain
B2: bispecific anti-HER2 antibody, common light chain, glycoengineered (bispecific antibody, human IgG1, kappa)
light: B1 light
heavy 1: not shown
heavy 2: not shown
notes: The glycan change is not described
B3: bispecific anti-HER2 antibody, CrossMab format (bispecific antibody, human IgG1, kappa)
heavy 1: not shown
heavy 2: not shown
light 1: DIQLTQPPSVSVAPGQTARITCGASQDVSTAVAWYQQKPGQAPVLVVYSASFLYSGIPSRFSGSRSGTDFTLTISRVEAGDEADYYCQQHYTTPPTFGTGTKVTVLRTVAAPSVFIFPPSDEQLKSGTASVVCLLNNFYPREAKVQWKVDNALQSGNSQESVTEQDSKDSTYSLSSTLTLSKADYEKHKVYACEVTHQGLSSPVTKSFNRGEC
light 2: DIQMTQSPSSLSASVGDRVTITCKASQDVSIGVAWYQQKPGKAPKLLIYSASYRYTGVPSRFSGSGSGTDFTLTISSLQPEDFATYYCQQYYIYPYTFGQGTKVEIKSSASTKGPSVFPLAPSSKSTSGGTAALGCLVKDYFPEPVTVSWNSGALTSGVHTFPAVLQSSGLYSLSSVVTVPSSSLGTQTYICNVNHKPSNTKVDKKVEPKSC
notes: CrossMab format with four different chains

Biological target: T1, complement factor C1q (UniProt P02745 23-245; P02746 28-253; P02747 29-245)
T1 construct: also called Clq; recombinant complement factor C1q
T1 sequence (P02745 23-245 limits assumed, chain 1 of 3): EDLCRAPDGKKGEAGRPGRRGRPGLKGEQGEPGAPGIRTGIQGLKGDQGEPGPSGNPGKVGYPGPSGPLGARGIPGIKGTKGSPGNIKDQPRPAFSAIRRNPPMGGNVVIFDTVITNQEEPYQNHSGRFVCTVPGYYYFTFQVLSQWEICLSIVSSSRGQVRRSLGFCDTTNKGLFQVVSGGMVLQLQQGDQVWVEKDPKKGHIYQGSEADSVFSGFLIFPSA
T1 sequence (P02746 28-253 limits assumed, chain 2 of 3): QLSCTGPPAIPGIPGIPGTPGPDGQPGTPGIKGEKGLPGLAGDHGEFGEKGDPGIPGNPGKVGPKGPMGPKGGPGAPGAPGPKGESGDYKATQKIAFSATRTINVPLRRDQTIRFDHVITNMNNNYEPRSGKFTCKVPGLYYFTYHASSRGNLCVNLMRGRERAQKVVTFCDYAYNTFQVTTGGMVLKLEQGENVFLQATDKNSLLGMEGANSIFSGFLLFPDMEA
T1 sequence (P02747 29-245 limits assumed, chain 3 of 3): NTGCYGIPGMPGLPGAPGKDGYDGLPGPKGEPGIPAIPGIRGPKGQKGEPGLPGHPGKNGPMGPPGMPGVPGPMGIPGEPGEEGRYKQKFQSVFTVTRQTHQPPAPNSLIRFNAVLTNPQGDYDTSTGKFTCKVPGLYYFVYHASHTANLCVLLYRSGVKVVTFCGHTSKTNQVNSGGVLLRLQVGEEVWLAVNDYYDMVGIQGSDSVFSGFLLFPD
Experiment: flow cytometry: BT-474 cells with 10 µg/mL antibody, then 10 µg/mL C1q, detected with PE-labeled anti-C1q antibody
Description: About 3×10⁵ BT-474 cells were incubated with 10 μg/mL of indicated antibody on ice in RPMI 1640 supplemented with 10% FCS. After 30 min. incubation on ice 10 μg/mL C1q (Sigma Aldrich, Cat. No. C1740) was added. The incubation was continued thereafter for an additionally 20 min. on ice. After washing the cells were resuspended in 200 μL medium and counterstained with a PE-labeled anti-C1q antibody (Cedarlane, Cat. No. CL7611PE-SP). After an incubation time of 30 min. on ice cells were washed twice and analyzed on a FACS Canto

| Binder | PE-signal (geomean) |
| --- | --- |
| B1 | 1440 geomean PE-signal |
| B2 | 1040 geomean PE-signal |
| B3 | 489 geomean PE-signal |
